The values below come from PMC9482650, “Quantitative fragmentomics allow affinity mapping of interactomes” (Nature Communications, 2022).

The term pKd denotes the Kd on a negative log10 scale, so that one unit is a factor of ten.

Some targets named below: DLG4_2, P78352; FRMPD2_1, Q68DX3; IL16_1, Q14005; Inadl_3, Q8NI35; LAP2, Q96RT1; LIMK2, P53671; LNX1_3, Q8TBB1; NHERF4_2, Q86UT5; NHERF4_4, Q86UT5.
Holding throughout (assay): holdup assay
What all share (parameters): key: below the threshold = too weak to quantify, mostly under pKd 3.1 to 4

In the next assay the target is T1, APBA1_2, Q02410.
T1 sequence (Q02410 742-832, limits assumed, looked up): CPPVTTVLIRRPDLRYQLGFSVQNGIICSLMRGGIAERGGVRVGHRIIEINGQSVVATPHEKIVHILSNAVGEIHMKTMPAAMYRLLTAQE

Another assay has as its target T2, APBA2_2, Q99767.
T2 sequence (Q99767 654-744, limits assumed, looked up): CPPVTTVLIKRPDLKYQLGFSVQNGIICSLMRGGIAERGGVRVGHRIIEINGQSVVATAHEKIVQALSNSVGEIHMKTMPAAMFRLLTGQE

Another assay has as its target T3, CARD11, Q9BXL7.
T3 sequence (Q9BXL7 662-765, limits assumed, looked up): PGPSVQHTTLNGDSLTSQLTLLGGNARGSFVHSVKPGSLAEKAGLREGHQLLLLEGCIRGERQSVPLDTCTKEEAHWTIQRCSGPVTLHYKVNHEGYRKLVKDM

The next assay deals with T4, DFNB31_2, Q9P202.
T4 sequence (Q9P202 274-371, limits assumed, looked up): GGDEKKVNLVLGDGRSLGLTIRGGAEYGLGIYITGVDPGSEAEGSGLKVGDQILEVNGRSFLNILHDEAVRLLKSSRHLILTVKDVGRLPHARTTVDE

The target of the next assay is T5, FRMPD1, Q5SYB0.
T5 sequence (Q5SYB0 52-145, limits assumed, looked up): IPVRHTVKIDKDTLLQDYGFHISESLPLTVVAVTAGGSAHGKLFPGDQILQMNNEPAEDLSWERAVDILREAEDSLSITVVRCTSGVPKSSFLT

The next assay deals with T6, LNX2_3, Q8N448.
T6 sequence (Q8N448 463-564, limits assumed, looked up): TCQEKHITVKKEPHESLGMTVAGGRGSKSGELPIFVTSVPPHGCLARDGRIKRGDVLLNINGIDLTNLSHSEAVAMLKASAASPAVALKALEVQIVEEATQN

The target of another assay is T7, MPDZ_10, O75970.
T7 sequence (O75970 1624-1722, limits assumed, looked up): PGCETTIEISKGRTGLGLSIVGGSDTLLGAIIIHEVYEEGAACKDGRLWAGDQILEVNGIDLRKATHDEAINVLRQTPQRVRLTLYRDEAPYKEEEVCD

A further assay has as its target T8, MPP6, Q9NZW5.
T8 sequence (Q9NZW5 125-219, limits assumed, looked up): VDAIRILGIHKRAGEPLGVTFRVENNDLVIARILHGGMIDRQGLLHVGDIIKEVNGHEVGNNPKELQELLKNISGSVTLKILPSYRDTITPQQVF

A further assay addresses T9, MPP7, Q5T2T1.
T9 sequence (Q5T2T1 134-230, limits assumed, looked up): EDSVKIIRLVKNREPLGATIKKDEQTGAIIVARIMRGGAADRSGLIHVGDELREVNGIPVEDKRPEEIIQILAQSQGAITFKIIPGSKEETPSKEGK

A further assay has as its target T10, NHERF3_3, Q5T2W1.
T10 sequence (Q5T2W1 238-333, limits assumed, looked up): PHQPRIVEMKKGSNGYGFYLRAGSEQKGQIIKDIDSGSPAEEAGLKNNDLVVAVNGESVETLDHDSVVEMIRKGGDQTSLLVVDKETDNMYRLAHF

The next assay addresses T11, NHERF3_4, Q5T2W1.
T11 sequence (Q5T2W1 373-468, limits assumed, looked up): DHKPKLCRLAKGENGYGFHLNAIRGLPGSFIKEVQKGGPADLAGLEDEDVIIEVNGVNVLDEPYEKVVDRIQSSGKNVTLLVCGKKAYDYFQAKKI

The target in a further assay is T12, PDZD2_2, O15018.
T12 sequence (O15018 329-429, limits assumed, looked up): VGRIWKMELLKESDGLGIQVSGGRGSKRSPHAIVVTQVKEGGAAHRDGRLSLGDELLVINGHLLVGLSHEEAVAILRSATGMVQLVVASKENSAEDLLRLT

A further assay deals with T13, SHANK1, Q9Y566.
T13 sequence (Q9Y566 658-767, limits assumed, looked up): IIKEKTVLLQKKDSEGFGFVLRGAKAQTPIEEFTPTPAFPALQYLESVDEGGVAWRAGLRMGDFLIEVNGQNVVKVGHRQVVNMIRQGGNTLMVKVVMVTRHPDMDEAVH

In the next assay the target is T14, TX1BP3, O14907.
T14 sequence (O14907 10-122, limits assumed, looked up): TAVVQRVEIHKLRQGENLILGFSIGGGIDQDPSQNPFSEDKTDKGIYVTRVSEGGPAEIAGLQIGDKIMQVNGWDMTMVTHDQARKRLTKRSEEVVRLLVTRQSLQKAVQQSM

Setting [1] is: plain residues with an end cap or a label only (N-terminal biotin on a linker: ttds).
Where [2] appears, read: plain residues with an end cap or a label only (N-terminal biotin on a linker: ado-ado).
The mark [3] stands for this setting: plain residues with an end cap or a label only (N-terminal biotin on a linker: ahx).

Sequence of FRMPD2_1, Q68DX3 (Q68DX3 770-861): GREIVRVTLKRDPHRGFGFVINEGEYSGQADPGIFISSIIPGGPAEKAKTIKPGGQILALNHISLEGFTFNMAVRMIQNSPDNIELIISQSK
Sequence of LAP2, Q96RT1 (Q96RT1 other isoform, or with tags, fused parts or gaps): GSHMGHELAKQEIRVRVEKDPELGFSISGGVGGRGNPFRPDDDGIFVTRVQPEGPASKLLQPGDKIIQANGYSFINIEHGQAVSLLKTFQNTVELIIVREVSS
Sequence of NHERF4_4, Q86UT5 (Q86UT5 464-550): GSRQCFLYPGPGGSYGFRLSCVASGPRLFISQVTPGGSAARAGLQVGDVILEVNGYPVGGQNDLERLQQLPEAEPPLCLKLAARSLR
Sequence of Inadl_3, Q8NI35 (Q8NI35 359-469): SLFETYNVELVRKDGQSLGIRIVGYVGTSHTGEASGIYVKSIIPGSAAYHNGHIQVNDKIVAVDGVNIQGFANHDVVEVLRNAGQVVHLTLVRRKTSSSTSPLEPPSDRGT
Sequence of LIMK2, P53671 (P53671 143-248): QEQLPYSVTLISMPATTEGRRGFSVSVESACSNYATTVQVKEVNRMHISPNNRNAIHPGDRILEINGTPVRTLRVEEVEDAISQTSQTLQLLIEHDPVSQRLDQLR
Sequence of LNX1_3, Q8TBB1 (Q8TBB1 500-596): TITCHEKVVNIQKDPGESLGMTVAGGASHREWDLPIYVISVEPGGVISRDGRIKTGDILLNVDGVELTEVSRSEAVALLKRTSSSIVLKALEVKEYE
Sequence of DLG4_2, P78352 (P78352 155-259): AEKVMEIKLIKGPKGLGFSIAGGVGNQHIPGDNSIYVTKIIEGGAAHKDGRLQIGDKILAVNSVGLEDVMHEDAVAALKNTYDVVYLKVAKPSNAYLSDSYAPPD
Sequence of IL16_1, Q14005 (Q14005 210-306): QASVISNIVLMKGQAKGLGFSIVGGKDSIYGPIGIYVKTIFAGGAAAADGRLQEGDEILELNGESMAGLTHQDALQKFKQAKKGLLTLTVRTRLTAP
Sequence of NHERF4_2, Q86UT5 (Q86UT5 220-308): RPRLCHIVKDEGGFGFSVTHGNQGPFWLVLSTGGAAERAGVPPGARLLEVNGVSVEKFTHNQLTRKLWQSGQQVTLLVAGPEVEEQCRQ

As for MERLRVETDV [ARHGEF16, Q5VV41], the pKd with APBA1_2, Q02410 (setting [1]) is 3.86; with APBA2_2, Q99767 (setting [1]), “below the threshold”; with CARD11, Q9BXL7 (setting [1]), “below the threshold”; with DFNB31_2, Q9P202 (setting [1]), “below the threshold”; in the assay with DLG4_2, P78352 (setting [1]) it was 5.44; with FRMPD1, Q5SYB0 (setting [1]), “below the threshold”. The pKd was 3.79 with FRMPD2_1, Q68DX3 (setting [1]); “below the threshold” with IL16_1, Q14005 (setting [1]); 3.8 with Inadl_3, Q8NI35 (setting [1]); 4.39 with LAP2, Q96RT1 (setting [1]); “below the threshold” with LIMK2, P53671 (setting [1]); “below the threshold” in the assay with LNX1_3, Q8TBB1 (setting [1]). For the same molecule, the pKd result was “below the threshold” with LNX2_3, Q8N448 (setting [1]); 3.71 with MPDZ_10, O75970 (setting [1]); “below the threshold” with MPP6, Q9NZW5 (setting [1]); 3.54 with MPP7, Q5T2T1 (setting [1]); “below the threshold” with NHERF3_3, Q5T2W1 (setting [1]); “below the threshold” with NHERF3_4, Q5T2W1 (setting [1]). The pKd result is “below the threshold” with NHERF4_2, Q86UT5 (setting [1]); “below the threshold” in the assay with NHERF4_4, Q86UT5 (setting [1]); 4.33 in the assay with PDZD2_2, O15018 (setting [1]); “below the threshold” with SHANK1, Q9Y566 (setting [1]); 5.04 in the assay with TX1BP3, O14907 (setting [1]).
As to SVVSERISSV [HTR2C, P28335], the pKd in the assay with APBA1_2, Q02410 (setting [2]) is 3.87; with APBA2_2, Q99767 (setting [2]), “below the threshold”; with CARD11, Q9BXL7 (setting [2]) it was “below the threshold”; with DFNB31_2, Q9P202 (setting [2]), “below the threshold”; with DLG4_2, P78352 (setting [2]), 4.64; with FRMPD1, Q5SYB0 (setting [2]) it was “below the threshold”. The pKd result was “below the threshold” in the assay with FRMPD2_1, Q68DX3 (setting [2]); 4.56 with IL16_1, Q14005 (setting [2]); “below the threshold” with Inadl_3, Q8NI35 (setting [2]); “below the threshold” in the assay with LAP2, Q96RT1 (setting [2]); “below the threshold” with LIMK2, P53671 (setting [2]); “below the threshold” with LNX1_3, Q8TBB1 (setting [2]). Besides, the pKd entry in the assay with LNX2_3, Q8N448 (setting [2]) is “below the threshold”; in the assay with MPDZ_10, O75970 (setting [2]), 4.29; in the assay with MPP6, Q9NZW5 (setting [2]), “below the threshold”; with MPP7, Q5T2T1 (setting [2]) it was “below the threshold”; with NHERF3_3, Q5T2W1 (setting [2]), “below the threshold”; with NHERF3_4, Q5T2W1 (setting [2]), “below the threshold”. In addition, the pKd result was “below the threshold” with NHERF4_2, Q86UT5 (setting [2]); “below the threshold” with NHERF4_4, Q86UT5 (setting [2]); 5.56 with PDZD2_2, O15018 (setting [2]); “below the threshold” with SHANK1, Q9Y566 (setting [2]); 4.06 in the assay with TX1BP3, O14907 (setting [2]).
Turning to EKLSSIESDV [GRIN2B, Q13224], the pKd result with APBA1_2, Q02410 (setting [3]) is “below the threshold”; with APBA2_2, Q99767 (setting [3]), “below the threshold”; with CARD11, Q9BXL7 (setting [3]), “below the threshold”; with DFNB31_2, Q9P202 (setting [3]), “below the threshold”; with DLG4_2, P78352 (setting [3]), 4.86; with FRMPD1, Q5SYB0 (setting [3]), “below the threshold”. Further, the pKd entry is “below the threshold” with FRMPD2_1, Q68DX3 (setting [3]); 4.02 with IL16_1, Q14005 (setting [3]); 3.91 in the assay with Inadl_3, Q8NI35 (setting [3]); 4.26 with LAP2, Q96RT1 (setting [3]); “below the threshold” with LIMK2, P53671 (setting [3]); “below the threshold” with LNX1_3, Q8TBB1 (setting [3]). For the same molecule, the pKd entry with LNX2_3, Q8N448 (setting [3]) was “below the threshold”; with MPDZ_10, O75970 (setting [3]), 3.84; with MPP6, Q9NZW5 (setting [3]), “below the threshold”; in the assay with MPP7, Q5T2T1 (setting [3]), “below the threshold”; with NHERF3_3, Q5T2W1 (setting [3]), “below the threshold”; with NHERF3_4, Q5T2W1 (setting [3]) it was “below the threshold”. For the same molecule, the negative logarithm of the Kd (pKd) result with NHERF4_2, Q86UT5 (setting [3]) is “below the threshold”; with NHERF4_4, Q86UT5 (setting [3]), “below the threshold”; with PDZD2_2, O15018 (setting [3]), 4.82; with SHANK1, Q9Y566 (setting [3]), “below the threshold”; in the assay with TX1BP3, O14907 (setting [3]), 4.74.
In the case of HIVEALETDV [PBK, Q96KB5], the pKd in the assay with APBA1_2, Q02410 (setting [1]) was 4.27; with APBA2_2, Q99767 (setting [1]), “below the threshold”; in the assay with CARD11, Q9BXL7 (setting [1]) it was “below the threshold”; with DFNB31_2, Q9P202 (setting [1]), “below the threshold”; with DLG4_2, P78352 (setting [1]), 5.55; with FRMPD1, Q5SYB0 (setting [1]), “below the threshold”. The pKd result in the assay with FRMPD2_1, Q68DX3 (setting [1]) was “below the threshold”; with IL16_1, Q14005 (setting [1]), 3.97; in the assay with Inadl_3, Q8NI35 (setting [1]) it was 4.46; in the assay with LAP2, Q96RT1 (setting [1]), 5.04; with LIMK2, P53671 (setting [1]), “below the threshold”; in the assay with LNX1_3, Q8TBB1 (setting [1]), “below the threshold”. Also, the negative logarithm of the Kd (pKd) entry with LNX2_3, Q8N448 (setting [1]) is reported as “below the threshold”; with MPDZ_10, O75970 (setting [1]), “below the threshold”; with MPP6, Q9NZW5 (setting [1]), “below the threshold”; with MPP7, Q5T2T1 (setting [1]), “below the threshold”; with NHERF3_3, Q5T2W1 (setting [1]), “below the threshold”; in the assay with NHERF3_4, Q5T2W1 (setting [1]), “below the threshold”. The pKd result in the assay with NHERF4_2, Q86UT5 (setting [1]) is “below the threshold”; in the assay with NHERF4_4, Q86UT5 (setting [1]) it was “below the threshold”; with PDZD2_2, O15018 (setting [1]), 4.84; in the assay with SHANK1, Q9Y566 (setting [1]) it was “below the threshold”; with TX1BP3, O14907 (setting [1]) it was 5.03.
